Measurements published in US12365732 (23ANDME, dated 2025).

Experiments:
[1] = target: T1, recombinant hu-CD96 (M1-M503-polyHis) (human, UniProt P40200 22-519); test: ELISA, blocks hu-CD96-his binding to coated CD155-hFc
T1 construct: also called hu-CD96-his
T1 sequence: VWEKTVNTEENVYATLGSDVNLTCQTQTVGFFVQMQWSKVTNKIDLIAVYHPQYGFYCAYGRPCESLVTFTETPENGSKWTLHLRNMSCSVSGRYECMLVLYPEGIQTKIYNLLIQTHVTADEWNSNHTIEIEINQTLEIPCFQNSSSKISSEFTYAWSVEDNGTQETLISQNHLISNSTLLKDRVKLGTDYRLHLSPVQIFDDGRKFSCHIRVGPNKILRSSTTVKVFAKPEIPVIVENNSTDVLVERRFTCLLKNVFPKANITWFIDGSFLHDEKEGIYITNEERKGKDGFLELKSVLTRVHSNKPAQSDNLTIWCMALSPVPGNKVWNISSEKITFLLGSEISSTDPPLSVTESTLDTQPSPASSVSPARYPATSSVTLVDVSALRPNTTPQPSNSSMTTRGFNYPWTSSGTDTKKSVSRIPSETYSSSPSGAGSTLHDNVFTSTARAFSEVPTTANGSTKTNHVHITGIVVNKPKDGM
Method: (§1) CD96 binding of purified hybridoma antibodies: The hu-CD96 and cy-CD96 antigen binding ELISA was performed on the purified hybridoma antibodies. Briefly, 96-well MAXISORP® flat bottom plates (Thermo Fisher Scientific, Waltham, MA; Cat #439454) were coated overnight at 4° C. with 0.5 µg/mL of hu-CD96D1 D3-hFc and cynomolgus monkey CD96D1 D3-hFc in PBS. After removing the coating solution, unspecific binding was blocked by PBS containing 1% bovine serum albumin (blocking buffer) and incubation at room temperature for one hour. Plates were then washed three times with PBS and 0.05% TWEEN®-20 (wash buffer). Serial dilution of purified antibodies in PBS containing 0.5% BSA and 0.05% Tween 20 (ELISA buffer) was added to individual wells followed by incubation at room temperature for one hour with agitation. Plates were washed three times with wash buffer, then 100 µL/well of anti-mouse IgG-HRP (Thermo Fisher Scientific, Waltham, MA; Cat #626520) in ELISA buffer was added. […] Enzymatic color development was stopped with 50 µL/well of TMB stop solution (VWR/Avantor, Radnor, PA, USA; Cat #95059-200). Plates were analyzed with a SpectraMax i3X plate reader (Molecular Devices LLC, San Jose, CA, USA) at 450 nm.
CD155 receptor blocking of purified hybridoma antibodies: Human CD155 blocking ELISA was performed on purified hybridoma antibodies following the same protocol as described for CD96 (above), except that serial dilution of purified antibodies 50 µL/well (starting at 1 µM, 1:5 dilution) in assay buffer was added into the reaction.

[2] = target: T2, cynomolgus monkey CD96D1 D3-hFc (cynomolgus monkey); test: ELISA, coated CD96D1D3-hFc
T2 construct: also called cy-CD96D1 D3
Method: as §1

[3] = target: hu-CD96D1 D3-hFc (human); test: ELISA, coated CD96D1D3-hFc
Method: as §1

[4] = target: T3, hu-CD96 (soluble, isoform 2 extracellular domain) (human, UniProt P40200 22-516, biotinylated in Octet and blocking ELISA); test: CD155 blocking ELISA
T3 construct: the assays name only hu-CD96; also called hCD96; biotinylated hu-CD96
T3 sequence: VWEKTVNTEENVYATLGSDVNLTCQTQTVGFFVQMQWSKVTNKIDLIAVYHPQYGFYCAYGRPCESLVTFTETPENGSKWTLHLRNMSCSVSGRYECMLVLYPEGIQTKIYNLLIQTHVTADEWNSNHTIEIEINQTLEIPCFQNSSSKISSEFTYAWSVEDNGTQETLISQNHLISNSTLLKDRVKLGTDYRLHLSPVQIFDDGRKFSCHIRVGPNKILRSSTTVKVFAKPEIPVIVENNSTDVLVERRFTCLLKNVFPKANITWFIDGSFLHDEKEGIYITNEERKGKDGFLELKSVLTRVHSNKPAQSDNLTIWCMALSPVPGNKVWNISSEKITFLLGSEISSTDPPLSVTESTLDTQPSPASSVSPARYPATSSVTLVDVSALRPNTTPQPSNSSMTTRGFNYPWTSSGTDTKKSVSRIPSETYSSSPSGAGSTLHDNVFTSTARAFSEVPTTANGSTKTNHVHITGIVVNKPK

[5] = target: T3, hu-CD96 (soluble, isoform 2 …); test: BLI (Octet), biotin-CD96 on SA, Fab analyte
[6] = target: T4, hu-CD96 Fc (human, biotinylated in Table 16); test: SPR (Biacore), Fab
T4 construct: also called biotinylated hu-CD96-Fc

[7] = target: T5, hu-CD96 isoform 2 on CHO cells (human, UniProt P40200 22-585); test: FACS, Ab 0.016 nM
T5 construct: also called CHO-CD96 (isoform 2); CD96-CHOs
T5 sequence: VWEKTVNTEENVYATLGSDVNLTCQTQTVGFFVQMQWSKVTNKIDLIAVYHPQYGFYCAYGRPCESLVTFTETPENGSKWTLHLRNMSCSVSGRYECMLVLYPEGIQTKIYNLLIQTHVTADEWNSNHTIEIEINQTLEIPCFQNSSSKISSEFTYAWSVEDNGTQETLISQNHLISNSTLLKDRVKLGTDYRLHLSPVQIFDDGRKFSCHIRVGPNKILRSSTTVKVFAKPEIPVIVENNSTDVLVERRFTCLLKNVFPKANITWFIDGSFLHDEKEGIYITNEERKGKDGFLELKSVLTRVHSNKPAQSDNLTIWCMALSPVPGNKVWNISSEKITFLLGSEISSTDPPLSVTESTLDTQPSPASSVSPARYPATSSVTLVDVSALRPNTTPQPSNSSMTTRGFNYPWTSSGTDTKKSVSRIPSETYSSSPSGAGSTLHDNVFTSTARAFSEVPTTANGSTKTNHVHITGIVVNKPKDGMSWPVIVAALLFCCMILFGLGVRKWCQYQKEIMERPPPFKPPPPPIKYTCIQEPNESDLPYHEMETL
Method: (§2) Isoform 1 of hu-CD96 (Origene, catalog #RC213845) was transiently expressed in HEK293T cells following standard lipofectamine or Fugene transfection protocol. […] Cells were washed, and binding was detected by incubation with anti-mouse IgG-FITC (Biolegend, catalog #406001) for 20 minutes at 4° C. Cell binding was analyzed by flow cytometry with a CytoFLEX (Beckman Coulter). Binding curves were calculated as a percentage of cells positive for bound antibody.
(§3) Isoform 2 of hu-CD96 (DNA construct: Origene, catalog #RC221005) was expressed on a single-cell-clone-derived CHO stable cell line. Binding of the anti-CD96 antibodies to the CHO cells were determined as described above with isoform 1 of hu-CD96.

[8] = target: T5, hu-CD96 isoform 2 on CHO cells; test: FACS, Ab 2 nM
Method: as §2, §3

[9] = target: T5, hu-CD96 isoform 2 on CHO cells; test: FACS, Ab 0.4 nM
Method: as §2, §3

[10] = target: T5, hu-CD96 isoform 2 on CHO cells; test: FACS, Ab 50 nM
Method: as §2, §3

[11] = target: T5, hu-CD96 isoform 2 on CHO cells; test: FACS, % positive curve
Method: as §2, §3

[12] = target: T5, hu-CD96 isoform 2 on CHO cells; test: FACS, Ab 0.08 nM
Method: as §2, §3

[13] = target: T5, hu-CD96 isoform 2 on CHO cells; test: FACS, Ab 10 nM
Method: as §2, §3

[14] = target: T5, hu-CD96 isoform 2 on CHO cells; test: FACS, Ab 0.0032 nM
Method: as §2, §3

T2 sequence (chain, as listed by the source limits assumed): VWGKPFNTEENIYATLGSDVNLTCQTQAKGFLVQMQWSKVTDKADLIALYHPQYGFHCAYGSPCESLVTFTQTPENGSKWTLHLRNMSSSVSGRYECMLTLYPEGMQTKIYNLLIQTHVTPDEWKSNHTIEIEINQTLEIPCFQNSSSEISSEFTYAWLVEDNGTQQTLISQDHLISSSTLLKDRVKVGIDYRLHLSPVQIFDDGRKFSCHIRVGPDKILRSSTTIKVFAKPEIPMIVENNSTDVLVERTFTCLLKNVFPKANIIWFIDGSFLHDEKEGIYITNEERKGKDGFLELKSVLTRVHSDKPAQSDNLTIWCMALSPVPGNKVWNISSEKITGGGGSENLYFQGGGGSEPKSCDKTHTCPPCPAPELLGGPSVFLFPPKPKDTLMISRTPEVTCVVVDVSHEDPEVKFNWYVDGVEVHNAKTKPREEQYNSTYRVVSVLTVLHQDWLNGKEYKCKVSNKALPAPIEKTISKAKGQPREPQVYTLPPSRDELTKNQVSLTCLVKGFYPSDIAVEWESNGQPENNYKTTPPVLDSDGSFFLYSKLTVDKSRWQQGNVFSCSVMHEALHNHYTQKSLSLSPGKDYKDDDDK

B1: 12F8 (clone 12F8.12B5), purified hybridoma antibody (antibody, V domains shown)
VH: QVQLQQPGAELVTPGASVKLSCKASGFTFTNNWMHWVKQRPGQGLEWIGMIHPNSGITNINEKFKNKATVTVDKSSSTVYIQLSSLTSEDSAVYYCRSDGTYEGYFDYWGQGTPLTVSS
VL: DIVMTQSQKFMSTSVGDRVSVTCKASQNVGTAIVWYQKKPGQSPKTLIYSASTRYTGVPDRFTGSGSGTDFTLTISNVQSEDLAEYFCQQYSSSPLTFGSGTKLEIK
notes: murine hybridoma IgG
For B1, the IC50 [1] was 0.95 nM, the EC50 [2] was roughly 10 nM and the EC50 [3] was 0.25 nM.

B2: mAb1.v7.NGS8 Fab (Fab, V domains shown)
VH: EVQLVQSGAEVKKPGASVKVSCKASGFTFTNNFMHWVRQAPGQGLEWIGMIHANSGITNINEKFKNRVTMTTDTSTSTAYMELRSLRSEDTAVYYCRSDGIYEGYFDYWGQGTLVTVSS
VL: DIQLTQSPSSLSASVGDRVTITCKASQNVGTAIVWYQQKPGKAPKVLIYSASTRYTGVPSRFSGSGSGTDFTLTISSLQPEDFATYYCQQYSSSPLTFGQGTKVEIK
notes: Fab with 8xHis tag; also called W33F/P52aA/T97I
B2 was tested, and the IC50 [4] was 0.2 nM, the Kd [5] was 0.1 nM and the Kd [6] was 1.8 nM. For the same binder, the koff [6] was 2.53e-05 s⁻¹ and the kon [6] was 16700 M⁻¹ s⁻¹.

B3: 10H5, purified hybridoma antibody (antibody, V domains shown)
VH: QVQLQQSGADLARPGASIKLSCKASGYTFTGYGVTWVKQSTGQGLDWIGEIYPGTVITYYNAKFKGKATLTADKSSSTAYMELRSLTSEDSAVYFCARGLGRAMDYWGQGTSVTVSS
VL: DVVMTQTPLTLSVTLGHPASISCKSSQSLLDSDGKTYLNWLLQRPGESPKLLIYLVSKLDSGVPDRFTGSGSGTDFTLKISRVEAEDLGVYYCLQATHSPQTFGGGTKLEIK
notes: murine hybridoma IgG
With B3 the IC50 [1] was 0.958 nM and the EC50 [3] was 0.05 nM.

B4: 1G8, purified hybridoma antibody (antibody, V domains shown)
VH: QVQLQQSGPELLKPGASVKISCKASGYTFTDYYINWVKQRPGQGLEWIGWIFPGTEGIYYNEKFKGKATLTVDKSSTTAYMLLSSLTSEDSAVYFCAREGDYRYYSPLGYWGQGTLVTVSA
VL: DIQMNQSPSSLSASLGDTITITCRVSQDISFWLSWYQQKPGNIPKLLIYKASNLHTGVPPRFSGSGSGTDFTLTISSLQPEDIAAYYCLQSQSYPYTFGGGTKLEIK
notes: murine hybridoma IgG
In the case of B4, the “% positive” value [7] is reported as 0%, the “% positive” value [8] is reported as 26.2% and the “% positive” value [9] is reported as 7.1%. The “% positive” value [10] was 34.8%, the IC50 [1] was 0.883 nM and the EC50 [11] was 1.04 nM. The “% positive” value [12] was 0.2%, the binding result [2] was “no binding” and the EC50 [3] was 0.072 nM. The “% positive” value [13] was 35.3% and the “% positive” value [14] was 0.1%.

B5: 16D9, purified hybridoma antibody (antibody, V domains shown)
VH: QVQLQQSGPELVKPGASVKISCKASGYNFNDYYINWVNQRPGQGLEWIGWIFPGRIITYYNEKFKGKATLTVDTSSNTAYMLLSSLTSEDSAVYFCARGVGEGFDYWGQGTTLTVSS
VL: ENVLTQSPAIMSATLGEKVTMNCRASSNVKYMYWYQQKSGVSPKLWIYYTSNLASGVPTRFSGSGSGTSYSLTISSVEAEDAATYYCQQFTSSPLTFGAGTKLELK
notes: murine hybridoma IgG
With B5 the IC50 [1] was 1.06 nM, the binding result [2] was “no binding” and the EC50 [3] was 0.05 nM.
